Measurements published in PMC3627919, “Novel Split-Luciferase-Based Genetically Encoded Biosensors for Noninvasive Visualization of Rho GTPases” (PLoS ONE, 2013).

Target: T1, Nfluc416-WASP (human, UniProt P42768 220-288)
T1 sequence (looked up): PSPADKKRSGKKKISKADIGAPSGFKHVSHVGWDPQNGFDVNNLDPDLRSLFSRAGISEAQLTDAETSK
Test: split reporter (BiFC, NanoBiT); bimolecular luminescence complementation (split firefly luciferase) in living HEK 293 cells, 24 h after transient cotransfection of the pair (50 ng/well) with pRL-tk; D-luciferin 150 ug/ml; IVIS CCD camera; ratio FL at 600 nm to RL at 500 nm; wild-type pairs also with co-expressed GEF or GAP catalytic domains
Details: partners not purified

B1: Cfluc398-CDC42(G12V) (natural protein)
chain: not shown
luminescence signal, fold of the active mutant over the wild type: 2.77 fold
reconstituted luminescence (FL/RL), fold over CDC42 F37A: 14.3 fold
reconstituted luminescence (FL/RL), fold over CDC42 T17N: 5.6 fold
reconstituted luminescence (FL/RL), fold over CDC42 WT: 2.7 fold
